Source: the supplement of paper PMC9112550, “Optimization of the antimicrobial peptide Bac7 by deep mutational scanning” (BMC Biology, 2022)

Each sequence was assayed on Escherichia coli TOP10 (assay: shrunken log2 fold change of peptide-encoding DNA abundance (4.5 h post-induction vs induction); higher = less antimicrobial activity (less host growth inhibition)). Conditions: time post-induction: 4.5 h; library: site-saturation at positions 5, 18, 19, 20.
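Note: peptides expressed intracellularly from a pBAD plasmid library in pooled LB shake-flask culture, induced with 0.3% L-arabinose, DNA abundance read by NGS, three biological replicates, DESeq2 with apeglm shrinkage.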

| Sequence | shrunken log2 fold change |
| --- | --- |
| RRIRARPPRLPRPRPRPEKSPRP | 1.01 |
| RRIRTRPPRLPRPRPRPSTRPRP | -0.296 |
| RRIRDRPPRLPRPRPRPNIRPRP | -0.0481 |
| RRIRSRPPRLPRPRPRPDHFPRP | 0.0963 |
| RRIRSRPPRLPRPRPRPFRDPRP | -0.123 |
| RRIRTRPPRLPRPRPRPVCSPRP | -0.247 |
| RRIRQRPPRLPRPRPRPRAKPRP | 0.0777 |
| RRIRVRPPRLPRPRPRPNPWPRP | -0.0698 |
| RRIRERPPRLPRPRPRPHHQPRP | -0.318 |
| RRIRTRPPRLPRPRPRPYMPPRP | -1.27 |
| RRIRGRPPRLPRPRPRPMANPRP | 0.057 |
| RRIRWRPPRLPRPRPRPCPQPRP | -0.134 |
| RRIRVRPPRLPRPRPRPIQNPRP | -0.121 |
| RRIRARPPRLPRPRPRPNTTPRP | -0.164 |
| RRIRDRPPRLPRPRPRPYIWPRP | -0.373 |
| RRIRRRPPRLPRPRPRPVKHPRP | 0.25 |
| RRIRQRPPRLPRPRPRPNSEPRP | -0.206 |
| RRIRCRPPRLPRPRPRPFGWPRP | 0.24 |
| RRIRMRPPRLPRPRPRPMLEPRP | 0.0346 |
| RRIRARPPRLPRPRPRPHNAPRP | -0.0368 |
| RRIRKRPPRLPRPRPRPSCKPRP | 0.034 |
| RRIRNRPPRLPRPRPRPTQEPRP | 0.786 |
| RRIRPRPPRLPRPRPRPITCPRP | 0.102 |
| RRIRPRPPRLPRPRPRPVICPRP | 0.0853 |
| RRIRVRPPRLPRPRPRPRNHPRP | 0.0133 |

| Sequence | shrunken log2 fold change |
| --- | --- |
| RRIRYRPPRLPRPRPRPLWYPRP | -0.824 |
| RRIRERPPRLPRPRPRPLKRPRP | -0.28 |
| RRIRPRPPRLPRPRPRPQNGPRP | -0.281 |
| RRIRFRPPRLPRPRPRPQNMPRP | -0.797 |
| RRIRTRPPRLPRPRPRPCSIPRP | -0.472 |
| RRIRERPPRLPRPRPRPDRRPRP | 0.0868 |
| RRIRFRPPRLPRPRPRPANPPRP | -0.156 |
| RRIRHRPPRLPRPRPRPNKRPRP | -0.198 |
| RRIRTRPPRLPRPRPRPKYNPRP | -0.81 |
| RRIRQRPPRLPRPRPRPRFMPRP | 0.137 |
| RRIRNRPPRLPRPRPRPFHWPRP | -0.186 |
| RRIRVRPPRLPRPRPRPACWPRP | 0.517 |
| RRIRRRPPRLPRPRPRPPGRPRP | 1.52 |
| RRIRKRPPRLPRPRPRPVWTPRP | 0.485 |
| RRIRPRPPRLPRPRPRPNYSPRP | -0.39 |
| RRIRARPPRLPRPRPRPKVKPRP | 0.171 |
| RRIRERPPRLPRPRPRPFAHPRP | 0.117 |
| RRIRARPPRLPRPRPRPNCMPRP | -0.421 |
| RRIRPRPPRLPRPRPRPQKYPRP | -0.257 |
| RRIRCRPPRLPRPRPRPYILPRP | -1.53 |
| RRIRHRPPRLPRPRPRPCMRPRP | 0.0267 |
| RRIRHRPPRLPRPRPRPINPPRP | -0.0815 |
| RRIRMRPPRLPRPRPRPDNGPRP | -0.0901 |
| RRIRSRPPRLPRPRPRPVCGPRP | 0.548 |
| RRIRMRPPRLPRPRPRPSETPRP | 0.814 |

| Sequence | shrunken log2 fold change |
| --- | --- |
| RRIRERPPRLPRPRPRPTRRPRP | 0.059 |
| RRIRQRPPRLPRPRPRPMAEPRP | 0.0238 |
| RRIRWRPPRLPRPRPRPPEWPRP | 0.36 |
| RRIRFRPPRLPRPRPRPQHHPRP | -0.659 |
| RRIRERPPRLPRPRPRPTEQPRP | -0.00926 |
| RRIRDRPPRLPRPRPRPCRKPRP | -0.00804 |
| RRIRKRPPRLPRPRPRPSAAPRP | 0.624 |
| RRIRHRPPRLPRPRPRPRLCPRP | 0.0797 |
| RRIRQRPPRLPRPRPRPCYQPRP | -0.0254 |
| RRIRGRPPRLPRPRPRPHADPRP | 1.68 |
| RRIRERPPRLPRPRPRPVEDPRP | 0.0178 |
| RRIRSRPPRLPRPRPRPKWVPRP | -0.209 |
| RRIRNRPPRLPRPRPRPPAVPRP | 0.387 |
| RRIRWRPPRLPRPRPRPVMPPRP | 0.15 |
| RRIRPRPPRLPRPRPRPFAQPRP | -0.0885 |
| RRIRYRPPRLPRPRPRPQEHPRP | -0.65 |
| RRIRYRPPRLPRPRPRPKQDPRP | -0.488 |
| RRIRYRPPRLPRPRPRPIQDPRP | -0.00166 |
| RRIRWRPPRLPRPRPRPPQAPRP | 0.733 |
| RRIRHRPPRLPRPRPRPCPHPRP | -0.0102 |
| RRIRCRPPRLPRPRPRPCYKPRP | 0.0187 |
| RRIRERPPRLPRPRPRPKNFPRP | -0.311 |
| RRIRPRPPRLPRPRPRPMIVPRP | -1.14 |
| RRIRGRPPRLPRPRPRPRWMPRP | 0.297 |
| RRIRDRPPRLPRPRPRPHCDPRP | -0.0666 |
